Results on 1 substance are retold here after article PMC11134608, “UBR5 forms ligand-dependent complexes on chromatin to regulate nuclear hormone receptor stability” (Molecular cell, 2023).

This experiment addresses Full-length human FLAG-UBR5 (human) (UniProt O95071). In words: SEC-MALS; purified UBR5 full length and Δtandem variant. Particulars: remark: other sources report otherwise.

By stoichiometry N is commonly meant the number of molecules, sites or subunits per partner or assembly.

In the case of “Full-length human FLAG-UBR5, O95071 1-2799”, the stoichiometry N stood at 4.
